This assay has as its target T1, IVTT-hMSH4 (Homo sapiens, UniProt O15457).
T1 construct: made in house; host or cells: in vitro transcription/translation, TNT coupled reticulocyte lysate (Promega), insert in pCR 2.1
T1 sequence (O15457 1-936): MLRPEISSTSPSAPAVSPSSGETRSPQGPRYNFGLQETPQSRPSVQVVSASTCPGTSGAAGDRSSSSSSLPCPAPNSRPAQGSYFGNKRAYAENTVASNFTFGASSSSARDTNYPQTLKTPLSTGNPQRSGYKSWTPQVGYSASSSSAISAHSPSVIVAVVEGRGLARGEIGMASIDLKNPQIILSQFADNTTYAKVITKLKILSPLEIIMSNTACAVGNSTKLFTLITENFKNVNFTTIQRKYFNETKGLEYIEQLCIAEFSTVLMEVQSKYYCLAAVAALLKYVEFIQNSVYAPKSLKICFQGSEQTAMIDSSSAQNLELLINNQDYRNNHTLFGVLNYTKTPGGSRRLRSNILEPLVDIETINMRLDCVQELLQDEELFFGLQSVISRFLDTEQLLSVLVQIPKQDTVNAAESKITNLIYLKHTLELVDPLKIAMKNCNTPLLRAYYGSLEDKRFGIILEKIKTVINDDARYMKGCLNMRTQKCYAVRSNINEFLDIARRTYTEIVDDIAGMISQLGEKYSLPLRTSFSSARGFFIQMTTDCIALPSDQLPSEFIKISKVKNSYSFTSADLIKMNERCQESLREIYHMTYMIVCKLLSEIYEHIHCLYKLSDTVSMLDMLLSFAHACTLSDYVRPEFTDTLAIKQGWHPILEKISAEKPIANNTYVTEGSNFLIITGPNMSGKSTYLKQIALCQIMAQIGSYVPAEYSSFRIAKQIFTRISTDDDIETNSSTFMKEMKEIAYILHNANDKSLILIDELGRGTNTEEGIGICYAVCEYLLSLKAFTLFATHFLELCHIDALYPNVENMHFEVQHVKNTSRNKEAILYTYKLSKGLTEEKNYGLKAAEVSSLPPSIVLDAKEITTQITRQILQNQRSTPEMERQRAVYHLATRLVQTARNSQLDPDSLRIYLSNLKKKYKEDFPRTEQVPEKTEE
The assay is described as follows: GST fusion protein interaction assay. The note with it: GST fusion protein as bait. The assay is classed as binding. Here is the method:
500 microliters taken from a 5 milliliter overnight starter culture of cells which expressed an hMSH2-, hMSH3-, hMSH5-, or hMSH6-pGEX-fusion protein with (or non-fused pGEX as a negative control) was inoculated into 50 milliliters of Luria broth which contained 50 micrograms per milliliter ampicillin, and this culture was grown until the optical density at 600 nanometers was about 0.5. Protein expression was induced by addition of 0.1 millimolar (final concentration) IPTG for 2 hours at 30° C. Cells were pelleted and resuspended in 750 microliters of phosphate buffered saline containing protease inhibitors. A 10 minute digestion on ice using 1 milligram per milliliter lysozyme was then performed. After the addition of 0.2% (v/v) Triton X-100 and 1 millimolar dithiothreitol (final concentrations), the lysate was snap-frozen in liquid nitrogen and thawed twice. DNaseI (200 units per milliliter; Boehringer Mannheim, Germany) digestion was performed using the thawed lysate for 30 minutes on ice, after which cell debris was removed by centrifugation at 14,000 rpm at 4° C. for 30 minutes in a benchtop microfuge. […]

We go through 1 molecule from US20020058275A1, “Compositions, kits, and methods for effecting adenine nucleotide modulation of DNA mismatch recognition proteins” (Thomas Jefferson University, priority 1997, published 2002).

B1: hMSH5: human MutS homolog, putative 834-amino-acid protein encoded by clone b29 (SEQ ID NO: 29) (protein)
chain: MASLGANPRRTPQGPRPGAASSGFPSPAPVPGPREAEEEEVEEEEELAEIHLCVLWNSGYLGIAYYDTSDSTIHFMPDAPDHESLKLLQRVLDEINPQSVVTSAKQDENMTRFLGKLASQEHREPKRPEIIFLPSVDFGLEISKQRLLSGNYSFIPDAMTATEKILFLSSIIPFDCLLTVRALGGLLKFLGRRRIGVELEDYNVSVPILGFKKFMLTHLVNIDQDTYSVLQIFKSESHPSVYKVASGLKEGLSLFGILNRCHCKWGEKLLRLWFTRPTHDLGELSSRLDVIQFFLLPQNLDMAQMLHRLLGHIKNVPLILKRMKLSHTKVSDWQVLYKTVYSALGLRDACRSLPQSIQLFRDIAQEFSDDLHHIASLIGKVVDFEGSLAENRFTVLPNIDPEIDEKKRRLMGLPSFLTEVARKELENLDSRIPSCSVIYIPLIGFLLSIPRLPSMVEASDFEINGLDFMFLSEEKLHYRSARTKELDALLGDLHCEIRDQETLLMYQLQCQVLARAAVLTRVLDLASRLDVLLALASAARDYGYSRPRYSPQVLGVRIQNGRHPLMELCARTFVPNSTECGGDKGRVKVITGPNSSGKSIYLKQVGLITFMALVGSFVPAEEAEIGAVDAIFTRIHSCESISLGLSTFMIDLNQVAKAVNNATAQSLVLIDEFGKGTNTVDGLALLAAVLRHWLARGPTCPHIFVATNFLSLVQLQLLPQGPLVQYLTMETCEDGNDLVFFYQVCEGVAKASHASHTAAQAGLPDKLVARGKEVSDLIRSGKPIKPVKDLLKKNQMENCQTLVDKFMKLDLEDPNLDLNVFMSQEVLPAATSIL
modifications: left off: a dimerising Fc or GST; large carriers; small tags and cut ends
As to B1, the “interaction with IVTT-hMSH4” value is reported as “significant interaction”.
